Results on 21 molecules are retold here after patent US20110223168A1 (published 2011).

The IC50 is the point on the concentration scale where inhibition reaches its midpoint. High values mean weaker potency in that assay, low ones greater potency in that assay. As usually defined, the Kd is the equilibrium constant for the complex coming apart.

Changes are numbered by the printed parent chain.

First the molecules themselves.
B1: TAR1-5-19 7U homodimer (other)
chain: DIQMTQSPSSLSASVGDRVTITCRASQSIDSYLHWYQQKPGKAPKLLIYSASELQSGVPSRFSGSGSGTDFTLTISSLQPEDFATYYCQQVVWRPFTFGQGTKVEIKRGGGGSGGGGSGGGGSGGGGSGGGGSGGGGSGGGGSDIQMTQSPSSLSASVGDRVTITCRASQSIDSYLHWYQQKPGKAPKLLIYSASELQSGVPSRFSGSGSGTDFTLTISSLQPEDFATYYCQQVVWRPFTFGQGTKVEIKR
notes: also called TAR1-5-19 homodimer with (Gly4Ser)7 linker
B2: TAR1-5-19 3U homodimer (other)
chain: DIQMTQSPSSLSASVGDRVTITCRASQSIDSYLHWYQQKPGKAPKLLIYSASELQSGVPSRFSGSGSGTDFTLTISSLQPEDFATYYCQQVVWRPFTFGQGTKVEIKRGGGGSGGGGSGGGGSDIQMTQSPSSLSASVGDRVTITCRASQSIDSYLHWYQQKPGKAPKLLIYSASELQSGVPSRFSGSGSGTDFTLTISSLQPEDFATYYCQQVVWRPFTFGQGTKVEIKR
notes: also called TAR1-5-19 homodimer with (Gly4Ser)3 linker
B3: TAR1-5-19 5U homodimer (other)
chain: DIQMTQSPSSLSASVGDRVTITCRASQSIDSYLHWYQQKPGKAPKLLIYSASELQSGVPSRFSGSGSGTDFTLTISSLQPEDFATYYCQQVVWRPFTFGQGTKVEIKRGGGGSGGGGSGGGGSGGGGSGGGGSDIQMTQSPSSLSASVGDRVTITCRASQSIDSYLHWYQQKPGKAPKLLIYSASELQSGVPSRFSGSGSGTDFTLTISSLQPEDFATYYCQQVVWRPFTFGQGTKVEIKR
notes: also called TAR1-5-19 homodimer with (Gly4Ser)5 linker
B4: TAR1-27d16 (other)
chain: DIQMTQSPSSLSASVGDRVTITCRASQSIWTKLHWYQQKPGKAPKLLIYMASSLQSGVPSRFSGSGSGTDFTLTISSLQPEDFATYYCQQWFSNPSTFGQGTKVEIKRGGGGSGGGGSGGGGSDIQMTQSPSSLSASVGDRVTITCRASQSIGPNLEWYQQKPGKAPKLLIYAASSLQSGVPSRFSGSGSGTDFTLTISSLQPEDFATYYCQQQMGRPRTFGQGTKVEIKR
notes: dAb-linker-dAb dimer; also called TAR1-27 dimer d16
B5: TAR1-5-19, MSA16 cys bonded heterodimer (bispecific antibody, V domains shown)
V domain 1: DIQMTQSPSSLSASVGDRVTITCRASQSIDSYLHWYQQKPGKAPKLLIYSASELQSGVPSRFSGSGSGTDFTLTISSLQPEDFATYYCQQVVWRPFTFGQGTKVEIKR
V domain 2: DIQMTQSPSSLSASVGDRVTITCRASQSIIKHLKWYQQKPGKAPKLLIYGASRLQSGVPSRFSGSGSGTDFTLTISSLQPEDFATYYCQQGARWPQTFGQGTKVEIKR
modifications: C-terminal Cys disulphide bonded to the C-terminal Cys of the MSA16 chain ; Chain 1 pos 109 Cys and chain 2 pos 109 Cys are joined by an intermolecular disulphide bond, made by chemical coupling via dithiodipyridine activation.
notes: Made by chemical coupling via a disulphide bond; separated from monomers by cation exchange; also called disulphide bonded heterodimer of TAR1-5-19 dAb and MSA16 dAb; cys bonded TAR1-5-19, MSA16 dimer
B6: TAR1-5-19CYS dimer (other)
VL: DIQMTQSPSSLSASVGDRVTITCRASQSIDSYLHWYQQKPGKAPKLLIYSASELQSGVPSRFSGSGSGTDFTLTISSLQPEDFATYYCQQVVWRPFTFGQGTKVEIKRC
modifications: C-terminal Cys forms the disulphide between the two chains
notes: Dimer via the engineered C-terminal cysteine, purified by protein L and cation exchange; also called TAR1-5-19CYS disulphide dimer
B7: TAR1-5d6 (other)
chain: DIQMTQSPSSLSASVGDRVTITCRASQSIFMNLLWYQQKPGKAPKLLIYNASVLQSGVPSRFSGSGSGTDFTLTISSLQPEDFATYYCQQVVWRPFTFGQGTKVEIKRGGGGSGGGGSGGGGSGGGGSGGGGSGGGGSGGGGSDIQMTQSPSSLSASVGDRVTITCRASQSIYDALEWYQQKPGKAPKLLIYTASRLQSGVPSRFSGSGSGTDFTLTISSLQPEDFATYYCQQVMQRPVTFGQGTKVEIKR
notes: dAb-linker-dAb dimer; also called TAR1-5 dimer 6
B8: TAR1-5d4 (other)
chain: DIQMTQSPSSLSASVGDRVTITCRASQSIFMNLLWYQQKPGKAPKLLIYNASVLQSGVPSRFSGSGSGTDFTLTISSLQPEDFATYYCQQVVWRPFTFGQGTKVEIKRGGGGSGGGGSGGGGSGGGGSGGGGSDIQMTQSPSSLSASVGDRVTITCRASQSVKEFLWWYQQKPGKAPKLLIYMASNLQSGVPSRFSGSGSGTDFTLTISSLQPEDFATYYCQQKFKLPRTFGQGTKVEIKR
notes: dAb-linker-dAb dimer; also called TAR1-5 dimer 4
B9: TAR1-5d1 (other)
chain: DIQMTQSPSSLSASVGDRVTITCRASQSIFMNLLWYQQKPGKAPKLLIYNASVLQSGVPSRFSGSGSGTDFTLTISSLQPEDFATYYCQQVVWRPFTFGQGTKVEIKRGGGGSGGGGSGGGGSDIQMTQSPSSLSASVGDRVTITCRASQSIYDALEWYQQKPGKAPKLLIYTASRLQSGVPSRFSGSGSGTDFTLTISSLQPEDFATYYCQQVMQRPVTFGQGTKVEIKR
notes: dAb-linker-dAb dimer; also called TAR1-5 dimer 1
B10: TAR1-5d5 (other)
chain: DIQMTQSPSSLSASVGDRVTITCRASQSIFMNLLWYQQKPGKAPKLLIYNASVLQSGVPSRFSGSGSGTDFTLTISSLQPEDFATYYCQQVVWRPFTFGQGTKVEIKRGGGGSGGGGSGGGGSGGGGSGGGGSDIQMTQSPSSLSASVGDRVTITCRASQSIYDALEWYQQKPGKAPKLLIYTASRLQSGVPSRFSGSGSGTDFTLTISSLQPEDFATYYCQQVMQRPVTFGQGTKVEIKR
notes: dAb-linker-dAb dimer; also called TAR1-5 dimer 5
B11: TAR1-5-19 d6 (other)
chain: B7 chain with F30D, M31S, N32Y, L34H, N50S, V53E
B12: TAR1-5-19 d1 (other)
chain: B9 chain with F30D, M31S, N32Y, L34H, N50S, V53E
notes: TAR1-5-19 substituted for TAR1-5 in lead clone d1
B13: TAR1-5-19d5 (other)
chain: B10 chain with F30D, M31S, N32Y, L34H, N50S, V53E
B14: TAR1-5-19 cys hinge dimer (other)
chain: DIQMTQSPSSLSASVGDRVTITCRASQSIDSYLHWYQQKPGKAPKLLIYSASELQSGVPSRFSGSGSGTDFTLTISSLQPEDFATYYCQQVVWRPFTFGQGTKVEIKREPKSGDKTHTCPPCP
modifications: hinge cysteines form the cystine bond(s) between the two chains
notes: Dimerises in the periplasm; FPLC purified dimer fraction tested; also called cysteine hinge linker format
B15: TAR1-5CH/dAb1 CK Fab (Fab, V domains shown, not shown: large carriers)
V domain 1: B5 V domain 1 with D30F, S31M, Y32N, H34L, S50N, E53V
V domain 2: B5 V domain 1 with D30Y, S31D, Y32A, H34E, S50T, E53R, V92M, W93Q, F96V
B16: dAb3CH/TAR1-5CK Fab (Fab, V domains shown, not shown: large carriers)
V domain 1: DIQMTQSPSSLSASVGDRVTITCRASQSVKEFLWWYQQKPGKAPKLLIYMASNLQSGVPSRFSGSGSGTDFTLTISSLQPEDFATYYCQQKFKLPRTFGQGTKVEIKR
V domain 2: B5 V domain 1 with D30F, S31M, Y32N, H34L, S50N, E53V
notes: also called TAR1-5CK d3CH
B17: TAR1-5-19CH/dAb3CK Fab (Fab, V domains shown, not shown: large carriers)
V domain 1: B5 V domain 1
V domain 2: B16 V domain 1
notes: also called TAR1-5-19CH d3CK
B18: TAR1-5-19CH/dAb1 CK Fab (Fab, V domains shown, not shown: large carriers)
V domain 1: B5 V domain 1
V domain 2: B5 V domain 1 with D30Y, S31D, Y32A, H34E, S50T, E53R, V92M, W93Q, F96V
notes: also called TAR1-5-19CH d1CK
B19: dAb1 CH/TAR1-5-19CK Fab (Fab, V domains shown, not shown: large carriers)
V domain 1: B5 V domain 1 with D30Y, S31D, Y32A, H34E, S50T, E53R, V92M, W93Q, F96V
V domain 2: B5 V domain 1
notes: also called TAR1-5-19CK d1CH
B20: MSA16 (other)
VL: DIQMTQSPSSLSASVGDRVTITCRASQSIIKHLKWYQQKPGKAPKLLIYGASRLQSGVPSRFSGSGSGTDFTLTISSLQPEDFATYYCQQGARWPQTFGQGTKVEIK
notes: also called clone 16; clone 21
B21: MSA26 (other)
VL: B20 VL with I30Y, K31Y, G50K, R53T, G91V, A92R, R93K, W94V, Q96R
notes: also called clone 26; clone 25

T2 sequence (P07724 25-608 limits assumed): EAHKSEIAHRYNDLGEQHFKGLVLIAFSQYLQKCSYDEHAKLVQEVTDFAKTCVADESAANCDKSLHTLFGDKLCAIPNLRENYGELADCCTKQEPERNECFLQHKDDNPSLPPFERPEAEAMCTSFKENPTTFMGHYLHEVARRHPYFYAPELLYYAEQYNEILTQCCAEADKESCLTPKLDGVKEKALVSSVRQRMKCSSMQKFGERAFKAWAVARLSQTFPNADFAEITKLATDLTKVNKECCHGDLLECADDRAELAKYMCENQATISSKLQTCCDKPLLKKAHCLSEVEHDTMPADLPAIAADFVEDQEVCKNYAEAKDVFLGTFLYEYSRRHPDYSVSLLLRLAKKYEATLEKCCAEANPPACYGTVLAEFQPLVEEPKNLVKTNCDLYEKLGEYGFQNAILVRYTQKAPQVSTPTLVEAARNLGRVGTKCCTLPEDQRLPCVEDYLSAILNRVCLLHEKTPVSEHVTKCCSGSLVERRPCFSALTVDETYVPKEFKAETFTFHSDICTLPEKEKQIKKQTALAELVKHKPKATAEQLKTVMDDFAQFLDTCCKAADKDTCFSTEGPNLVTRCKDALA

The target in the first assay is T1, human TNFα (human, UniProt P01375 77-233). Briefly: cell-based or functional assay.
T1 sequence (P01375 77-233 limits assumed): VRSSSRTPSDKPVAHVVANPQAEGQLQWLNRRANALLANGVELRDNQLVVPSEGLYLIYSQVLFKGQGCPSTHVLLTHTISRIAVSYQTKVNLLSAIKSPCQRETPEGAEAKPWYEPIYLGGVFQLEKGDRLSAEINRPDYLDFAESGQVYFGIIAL
Take B1: the “CA (cell assay, ND50)” value is ~15 nM.
Take B2: the “CA (cell assay, ND50)” value is ~30 nM.
Same read-out and setting: the value for B3 was ~3 nM.

The next assay has as its target T1, human TNFα. Briefly: TNF receptor assay: inhibition of TNF binding to TNFR1-Fc (ELISA).
Regarding B4, the IC50 is ~50 nM.
As to B5, the IC50 was ~18 nM.
B6 yielded an IC50 of 0.3 to 0.8 nM.

Another assay addresses T1, human TNFα. Described as above. The source holds these as a separate data set.
On to B7, for which the IC50 was ~100 nM.
In the case of B8, the IC50 was ~3 nM.
Still for that read-out and setting: the figure for B9 is ~30 nM; for B10 it is ~200 nM.

A further assay deals with T1, human TNFα. Described as above. This is another data set of the same source.
For the molecule B11, the IC50 is ~10 nM.
Same read-out and setting: the figure for B12 is ~15 nM.
B13: the IC50 was ~8 nM.

In another assay the target is T1, human TNFα. The assay is described as above. The source holds these as a separate data set.
On to B1, for which the IC50 was ~10 nM.
On the same count and under the same terms, the figure for B2 is ~20 nM; for B3 it is ~2 nM; for B14 it is ~2 nM.

The next assay deals with T1, human TNFα. The assay is described as above. The source holds these as a separate data set.
Take B15: the IC50 was ~90 nM.
Still for that read-out and setting: the value for B16 was ~100 nM; that for B17 was ~3 nM.
The same measure, in the same setting: the value for B18 was ~6 nM.
The same measure, in the same setting: the figure for B19 is ~6 nM.

A further assay addresses T2, mouse serum albumin (MSA) (mouse, UniProt P07724 25-608).
T2 construct: Used coated, on a CM5 chip, in solution and biotinylated (about 2 biotins per molecule); also called biotinylated MSA
Briefly: inhibition biacore: dAb premixed with MSA, binding to MSA-coated CM5 chip, Klotz plot (estimated Kd). How it is done:
Briefly, the dAbs were tested to determine the concentration of dAb required to achieve 200 RUs of response on a biacore CM5 chip coated with a high density of MSA. Once the required concentrations of dAb had been determined, MSA antigen at a range of concentrations around the expected Kd was premixed with the dAb and incubated overnight. Binding to the MSA coated biacore chip of dAb in each of the premixes was then measured at a high flow-rate of 30 μl/minute.
The purified dAbs were then analysed by inhibition biacore to determine Kd. […] Once the required concentrations of dAb had been determined, MSA antigen at a range of concentrations around the expected Kd was premixed with the dAb and incubated overnight. Binding to the MSA coated biacore chip of dAb in each of the premixes was then measured at a high flow-rate of 30 μl/minute.
On to B20, for which the Kd is 200 nM.
On the same count and under the same terms, the value for B21 was 70 nM.
